Measured values as given in publication PMC5449630 (Nucleic Acids Research, 2017).
Values belong to the binder of their own block, whether it stands above or below them.

Legend:
[1] = target: T1, DNA ligase IV tandem BRCT domains (residues 654-911) (UniProt P49917 654-911); test: SEC
T1 sequence (looked up): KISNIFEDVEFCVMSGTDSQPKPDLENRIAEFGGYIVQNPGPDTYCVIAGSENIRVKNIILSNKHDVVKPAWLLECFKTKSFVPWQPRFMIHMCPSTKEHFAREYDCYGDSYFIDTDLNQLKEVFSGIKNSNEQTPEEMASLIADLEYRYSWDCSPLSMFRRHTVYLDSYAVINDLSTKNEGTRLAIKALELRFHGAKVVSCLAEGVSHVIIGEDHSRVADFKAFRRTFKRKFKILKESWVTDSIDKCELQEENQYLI

[2] = target: the molecule itself; test: SEC
[3] = target: the molecule itself; test: SEC-MALS

binding result [1]: binds
B1: XRCC4 residues 1-238, non-phosphorylated (domain or fragment, UniProt Q13426 1-238, looked up)
chain: MERKISRIHLVSEPSITHFLQVSWEKTLESGFVITLTDGHSAWTGTVSESEISQEADDMAMEKGKYVGELRKALLSGAGPADVYTFNFSKESCYFFFEKNLKDVSFRLGSFNLEKVENPAEVIRELICYCLDTIAENQAKNEHLQKENERLLRDWNDVQGRFEKCVSAKEALETDLYKRFILVLNEKKTKIRSLHNKLLNAAQEREKDIKQEGETAICSEMTADRDPVYDESTDEESE
binding result [2]: binds

binding result [1]: binds
B2: CK2-phosphorylated XRCC4 residues 1-238 (domain or fragment, UniProt Q13426 1-238, looked up)
chain: B1 chain
modifications: phosphoserine at 232, phosphothreonine at 233 (CK2alpha in vitro)
stoichiometry N [3]: 2
